Experimental data: the Immune Epitope Database (IEDB)

What was measured:
HLA-A*02:01 [1] = assay: IEDB peptide-MHC binding, purified MHC/competitive/fluorescence; filed as Kd, often an IC50 or EC50 that approximates it; ≥ and ≤ were set here for values at or beyond the usual limits of such assays
HLA-A*02:03 = assay: as above
HLA-A*02:06 = assay: as above
HLA-A*26:02 = assay: as above
HLA-A*68:02 [2] = assay: as above
HLA-A*01:01 = assay: IEDB peptide-MHC binding, purified MHC/direct/fluorescence; filed as Kd, often an IC50 or EC50 that approximates it; ≥ and ≤ were set here for values at or beyond the usual limits of such assays
HLA-A*02:01 [3] = assay: as above
HLA-A*11:01 = assay: as above
HLA-A*24:03 = assay: as above
HLA-A*26:01 = assay: as above; conditions: source organism: Variola virus
HLA-A*26:03 = assay: as above
HLA-A*31:01 [4] = assay: as above
HLA-A*69:01 [5] = assay: as above; conditions: source organism: Camelpox virus M-96
HLA-B*07:02 = assay: as above
HLA-B*08:02 = assay: as above; conditions: source organism: Variola virus
HLA-B*15:17 [6] = assay: as above
HLA-B*57:01 = assay: as above
HLA-B*58:01 = assay: as above
HLA-B*08:01 = assay: IEDB peptide-MHC binding, purified MHC/competitive/fluorescence; filed as Kd, often an IC50 or EC50 that approximates it; ≥ and ≤ were set here for values at or beyond the usual limits of such assays; conditions: source organism: Vaccinia virus WR
HLA-B*15:01 [7] = assay: as above
HLA-B*18:01 [8] = assay: as above; conditions: source organism: Vaccinia virus WR
HLA-B*39:01 = assay: as above
HLA-A*03:01 = assay: IEDB peptide-MHC binding, purified MHC/direct/fluorescence; filed as Kd, often an IC50 or EC50 that approximates it; ≥ and ≤ were set here for values at or beyond the usual limits of such assays
HLA-B*18:01 [9] = assay: as above; conditions: source organism: Mycobacterium tuberculosis
HLA-B*27:05 = assay: as above
HLA-B*38:01 = assay: as above; conditions: source organism: Mycobacterium tuberculosis str. Haarlem
HLA-B*40:01 [10] = assay: as above
HLA-B*46:01 = assay: as above
HLA-B*48:01 = assay: as above
HLA-B*51:01 = assay: as above; conditions: source organism: Mycobacterium tuberculosis
HLA-A*31:01 [11] = assay: IEDB peptide-MHC binding, purified MHC/competitive/fluorescence; filed as Kd, often an IC50 or EC50 that approximates it; ≥ and ≤ were set here for values at or beyond the usual limits of such assays; conditions: source organism: Mycobacterium tuberculosis variant bovis BCG str. Pasteur 1173P2
HLA-A*69:01 [12] = assay: as above; conditions: source organism: Mycobacterium tuberculosis variant bovis BCG str. Pasteur 1173P2
HLA-A*32:07 = assay: as above
HLA-B*15:42 = assay: as above
HLA-B*27:20 = assay: as above; conditions: source organism: Escherichia coli 536
HLA-B*40:01 [13] = assay: as above; conditions: source organism: Escherichia coli 536
HLA-B*40:13 = assay: as above; conditions: source organism: Escherichia coli 536
HLA-B*45:06 = assay: as above
HLA-B*83:01 = assay: as above
HLA-A*24:02 = assay: IEDB peptide-MHC binding, purified MHC/direct/fluorescence; filed as Kd, often an IC50 or EC50 that approximates it; ≥ and ≤ were set here for values at or beyond the usual limits of such assays; conditions: source organism: Orthohantavirus hantanense
HLA-C*04:01 = assay: IEDB peptide-MHC binding, purified MHC/competitive/fluorescence; filed as Kd, often an IC50 or EC50 that approximates it; ≥ and ≤ were set here for values at or beyond the usual limits of such assays; conditions: source organism: Hantaan virus 76-118
HLA-A*68:02 [14] = assay: IEDB peptide-MHC binding, purified MHC/direct/fluorescence; filed as Kd, often an IC50 or EC50 that approximates it; ≥ and ≤ were set here for values at or beyond the usual limits of such assays; conditions: source organism: Brucella abortus
HLA-B*15:01 [15] = assay: as above; conditions: source organism: Brucella abortus
HLA-B*15:17 [16] = assay: IEDB peptide-MHC binding, purified MHC/competitive/fluorescence; filed as Kd, often an IC50 or EC50 that approximates it; ≥ and ≤ were set here for values at or beyond the usual limits of such assays; conditions: source organism: Brucella abortus S19
[17] = source organism: Human immunodeficiency virus 1
[18] = source organism: Camelpox virus M-96
[19] = source organism: Vaccinia virus WR
[20] = source organism: Mycobacterium tuberculosis
[21] = source organism: Mycobacterium tuberculosis variant bovis BCG str. Pasteur 1173P2
[22] = source organism: Escherichia coli 536
[23] = source organism: Hantaan virus 76-118
[24] = source organism: Brucella abortus

## EELKSLFNTV
HLA-A*02:01 [1]; [17]
  Kd: 1.67 µM
HLA-A*02:03; [17]
  Kd: ≥ 20 µM
HLA-A*02:06; [17]
  Kd: 0.515 µM
HLA-A*26:02; [17]
  Kd: 1.08 µM
HLA-A*68:02 [2]; [17]
  Kd: 0.326 µM

## EYYFRNEVF
HLA-A*01:01; [18]
  Kd: ≥ 20 µM
HLA-A*02:01 [3]; [18]
  Kd: ≥ 20 µM
HLA-A*11:01; [18]
  Kd: ≥ 20 µM
HLA-A*24:03; [18]
  Kd: 0.195 µM
HLA-A*26:01
  Kd: ≥ 20 µM
HLA-A*26:03; source organism: Variola virus
  Kd: ≥ 20 µM
HLA-A*31:01 [4]; [18]
  Kd: ≥ 20 µM
HLA-A*69:01 [5]
  Kd: ≥ 20 µM
HLA-B*07:02; [18]
  Kd: ≥ 20 µM
HLA-B*08:02
  Kd: ≥ 20 µM
HLA-B*15:17 [6]; [18]
  Kd: ≥ 20 µM
HLA-B*57:01; [18]
  Kd: ≥ 20 µM
HLA-B*58:01; [18]
  Kd: ≥ 20 µM
HLA-A*02:06; [19]
  Kd: 0.153 µM
HLA-A*26:02; [19]
  Kd: 3.49 µM
HLA-A*68:02 [2]; [19]
  Kd: 3.39 µM
HLA-B*08:01
  Kd: ≥ 20 µM
HLA-B*15:01 [7]; [19]
  Kd: 4.38 µM
HLA-B*18:01 [8]
  Kd: 0.0078 µM
HLA-B*39:01; [19]
  Kd: ≥ 20 µM

## RVEESRARL
HLA-A*01:01; [20]
  Kd: ≥ 20 µM
HLA-A*03:01; [20]
  Kd: ≥ 20 µM
HLA-A*11:01; [20]
  Kd: ≥ 20 µM
HLA-B*15:17 [6]; [20]
  Kd: 0.0194 µM
HLA-B*18:01 [9]
  Kd: ≥ 20 µM
HLA-B*27:05; [20]
  Kd: ≥ 20 µM
HLA-B*38:01
  Kd: ≥ 20 µM
HLA-B*40:01 [10]; [20]
  Kd: ≥ 20 µM
HLA-B*46:01; [20]
  Kd: ≥ 20 µM
HLA-B*48:01; [20]
  Kd: ≥ 20 µM
HLA-B*51:01
  Kd: ≥ 20 µM
HLA-B*57:01; [20]
  Kd: 2.5 µM
HLA-B*58:01; [20]
  Kd: ≥ 20 µM
HLA-A*02:01 [1]; [21]
  Kd: ≥ 20 µM
HLA-A*02:03; [21]
  Kd: ≥ 20 µM
HLA-A*31:01 [11]
  Kd: ≥ 20 µM
HLA-A*69:01 [12]
  Kd: ≥ 20 µM
HLA-B*15:01 [7]; [21]
  Kd: ≥ 20 µM

## RQRAVRMVL
HLA-A*32:07; [22]
  Kd: 0.0307 µM
HLA-B*15:01 [7]; [22]
  Kd: 0.354 µM
HLA-B*15:42; [22]
  Kd: 5.18 µM
HLA-B*27:20
  Kd: 0.0016 µM
HLA-B*39:01; [22]
  Kd: ≥ 5 µM
HLA-B*40:01 [13]
  Kd: 1.87 µM
HLA-B*40:13
  Kd: 0.0514 µM
HLA-B*45:06; [22]
  Kd: ≥ 5 µM
HLA-B*83:01; [22]
  Kd: ≥ 5 µM

## RYRTAVCGL
HLA-A*24:02
  Kd: 0.024 µM
HLA-A*24:03; source organism: Orthohantavirus hantanense
  Kd: 0.0067 µM
HLA-A*32:07; [23]
  Kd: 0.0076 µM
HLA-B*15:42; [23]
  Kd: ≥ 5 µM
HLA-B*45:06; [23]
  Kd: ≥ 5 µM
HLA-B*83:01; [23]
  Kd: ≥ 5 µM
HLA-C*04:01
  Kd: ≥ 5 µM

## RFRCVGPAP
HLA-A*01:01; [24]
  Kd: ≥ 20 µM
HLA-A*02:01 [3]; [24]
  Kd: ≥ 20 µM
HLA-A*03:01; [24]
  Kd: ≥ 20 µM
HLA-A*11:01; [24]
  Kd: ≥ 20 µM
HLA-A*26:03; source organism: Brucella suis 1330
  Kd: ≥ 20 µM
HLA-A*31:01 [4]; [24]
  Kd: ≥ 20 µM
HLA-A*68:02 [14]
  Kd: ≥ 20 µM
HLA-B*07:02; [24]
  Kd: ≥ 20 µM
HLA-B*15:01 [15]
  Kd: ≥ 20 µM
HLA-B*27:05; [24]
  Kd: ≥ 20 µM
HLA-B*40:01 [10]; [24]
  Kd: ≥ 20 µM
HLA-B*46:01; [24]
  Kd: ≥ 20 µM
HLA-B*48:01; [24]
  Kd: ≥ 20 µM
HLA-B*57:01; [24]
  Kd: ≥ 20 µM
HLA-B*58:01; [24]
  Kd: ≥ 20 µM
HLA-A*26:02; source organism: Brucella abortus S19
  Kd: ≥ 20 µM
HLA-B*15:17 [16]
  Kd: ≥ 20 µM
